This passage reports reverse-splicing fitness results from the RNAGym collection of RNA variant scans (doi:10.1093/molbev/msab373).

First the molecules themselves.
B1: Azoarcus group I ribozyme (parent)
chain: GUGCCUUGCGCCGGGAAACCACGCAAGGGAUGGUGUCAAAUUCGGCGAAACCUAAGCGCCCGCCCGGGCGUAUGGCAACGCCGAGCCAAGCUUCGGCGCCUGCGCCGAUGAAGGUGUAGAGACUAGACGGCACCCACCUAAGGCAAACGCUAUGGUGAAGGCAUAGUCCAGGGAGUGGCGAAAGUCACACAAACCGG

The variants in this data set derive from B1. The data set can be described thus: reverse-splicing fitness (ratio to wild type); higher = more active; in vitro selection; Mg2+ level not given. The procedure, abridged:
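An in vitro group I ribozyme library with randomized positions was T7-transcribed and gel-purified. In triplicate, 10 pmol RNA in EPPS pH 7.5 was reacted with 50 pmoles of a 30-nt RNA substrate for 1 h at 37 °C across several added MgCl2 levels (1–48 mM), then stopped with EDTA. Products were reverse transcribed from a substrate-complementary primer, PCR-amplified and sequenced (HiSeq 4000). Fitness is a variant's read proportion after selection over that before, normalised to wild type.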
Turning to C82G A111G A120G C150G C169G U176C, the reverse-splicing fitness was 0.00628.

For C82G A111G A120U A145G C150A C169A U176A, the reverse-splicing fitness was found to be 0.00843.

Take C82G A111G A120U A145G C150A C169A U176C: the reverse-splicing fitness was determined as 0.00503.

In the case of C82G A111G A120U A145G C150A C169A U176G, the reverse-splicing fitness came out at 0.00251.

Take C82G A111G A120G C150A C169G U176A: the reverse-splicing fitness was determined as 0.0239.

Regarding C82G A111G A120G C150A C169G U176G, the reverse-splicing fitness worked out at 0.00621.

For C82G A111G A120G C150A C169G U176C, the reverse-splicing fitness came to 0.0263.

C82G A111G A120U A145C C150G C169G U176G: the reverse-splicing fitness stood at 0.00196.

In the case of C82G A111G A120U A145C C150G C169G U176A, the reverse-splicing fitness amounted to 0.00278.

For the variant C82G A111G A120U A145C C150G C169G U176C, the reverse-splicing fitness stood at 0.00228.

Regarding C82G A111G A120G A145U C169U U176G, the reverse-splicing fitness amounted to 0.00384.

Regarding C82G A111G A120G A145U C169U U176A, the reverse-splicing fitness is 0.0191.

As for C82G A111G A120G A145U C169U U176C, the reverse-splicing fitness came to 0.0161.

Regarding C82G A111G A120G A145U C150A C169U U176G, the reverse-splicing fitness is 0.00582.

On to C82G A111G A120G A145U C150A C169U U176C, for which the reverse-splicing fitness is 0.0177.

In the case of C82G A111G A120G A145U C150A C169U U176A, the reverse-splicing fitness amounted to 0.0196.

For the variant C82G A111G A120G C169U, the reverse-splicing fitness came to 0.0144.

For the variant C82G A111G A120G C169A, the reverse-splicing fitness stood at 0.0124.

With C82G A111G A120G C169G, the reverse-splicing fitness is 0.0219.

On to C82G A111G A120G U176C, for which the reverse-splicing fitness was determined as 0.0217.

Regarding C82G A111G A120G U176G, the reverse-splicing fitness was 0.00869.

As to C82G A111G A120G U176A, the reverse-splicing fitness was found to be 0.0172.

As for C82G A111G A120G A145U C150U C169A, the reverse-splicing fitness was 0.0123.

Turning to C82G A111G A120G A145U C150U C169U, the reverse-splicing fitness turned out to be 0.0114.

With C82G A111G A120G A145U C150U C169G, the reverse-splicing fitness amounted to 0.0148.

Turning to C82G A111G A120G A145U C150G C169G U176C, the reverse-splicing fitness was 0.00676.

Regarding C82G A111G A120G A145U C150G C169G U176G, the reverse-splicing fitness worked out at 0.00457.

As to C82G A111G A120G A145U C150G C169G U176A, the reverse-splicing fitness worked out at 0.00751.

With C82G A111G A120U A145C C150G C169U U176G, the reverse-splicing fitness was found to be 0.00221.

As for C82G A111G A120U A145C C150G C169U U176A, the reverse-splicing fitness stood at 0.00286.

In the case of C82G A111G A120U A145C C150G C169U U176C, the reverse-splicing fitness came out at 0.00238.

As for C82G A111G A120G A145C C150U C169G U176G, the reverse-splicing fitness was 0.00557.

C82G A111G A120G A145C C150U C169G U176A: the reverse-splicing fitness came to 0.022.

Turning to C82G A111G A120G A145C C150U C169G U176C, the reverse-splicing fitness is 0.0155.

As to C82G A111G A120G A145C C150A C169U U176C, the reverse-splicing fitness worked out at 0.0128.

On to C82G A111G A120G A145C C150A C169U U176A, for which the reverse-splicing fitness was determined as 0.021.

On to C82G A111G A120G A145C C150A C169U U176G, for which the reverse-splicing fitness stood at 0.00551.

Take C82G A111G A120U A145C C150U C169G U176A: the reverse-splicing fitness is 0.00296.

In the case of C82G A111G A120U A145C C150U C169G U176G, the reverse-splicing fitness was 0.00185.

As for C82G A111G A120U A145C C150U C169G U176C, the reverse-splicing fitness turned out to be 0.0031.

As to C82G A111G A120G A145G C150U C169G U176A, the reverse-splicing fitness turned out to be 0.0139.

Turning to C82G A111G A120G A145G C150U C169G U176G, the reverse-splicing fitness was 0.00532.

For C82G A111G A120G A145G C150U C169G U176C, the reverse-splicing fitness is 0.0201.

In the case of C82G A111G A120G A145G C169A U176C, the reverse-splicing fitness was 0.0235.

C82G A111G A120G A145G C169A U176A: the reverse-splicing fitness stood at 0.0166.

Take C82G A111G A120G A145G C169A U176G: the reverse-splicing fitness is 0.00443.

Turning to C82G A111G A120G C169G U176A, the reverse-splicing fitness amounted to 0.0194.

Turning to C82G A111G A120G C169G U176C, the reverse-splicing fitness was found to be 0.0232.

As for C82G A111G A120G C169G U176G, the reverse-splicing fitness came to 0.00487.

Turning to C82G A111G A120G A145C C150U U176G, the reverse-splicing fitness amounted to 0.00599.

Regarding C82G A111G A120G A145C C150U U176C, the reverse-splicing fitness is 0.0149.

As to C82G A111G A120G A145C C150U U176A, the reverse-splicing fitness amounted to 0.0118.

Turning to C82G A111G A120G A145U C150G C169A U176C, the reverse-splicing fitness is 0.0133.

Turning to C82G A111G A120G A145U C150G C169A U176A, the reverse-splicing fitness worked out at 0.0118.

Take C82G A111G A120G A145U C150G C169A U176G: the reverse-splicing fitness was 0.00555.

Regarding C82G A111G A120G A145C C169G U176A, the reverse-splicing fitness was 0.0262.

For C82G A111G A120G A145C C169G U176C, the reverse-splicing fitness worked out at 0.0207.

In the case of C82G A111G A120G A145C C169G U176G, the reverse-splicing fitness was determined as 0.00483.

On to C82G A111G A120G A145C C150A C169A U176G, for which the reverse-splicing fitness was found to be 0.00537.

As to C82G A111G A120G A145C C150A C169A U176C, the reverse-splicing fitness was 0.00767.

Turning to C82G A111G A120G A145G C150A C169G U176G, the reverse-splicing fitness was 0.00618.

As to C82G A111G A120G A145G C150A C169G U176A, the reverse-splicing fitness was 0.0177.

With C82G A111G A120G A145G C150A C169G U176C, the reverse-splicing fitness stood at 0.0272.

With C82G A111G A120G A145U C169A, the reverse-splicing fitness was 0.0118.

For the variant C82G A111G A120G A145U C169U, the reverse-splicing fitness is 0.012.

On to C82G A111G A120G A145U C169G, for which the reverse-splicing fitness came to 0.0203.

Consider C82G A111G A120G A145C C169A U176C, for which the reverse-splicing fitness worked out at 0.0114.

C82G A111G A120G A145C C169A U176A: the reverse-splicing fitness was 0.0165.

On to C82G A111G A120G A145C C169A U176G, for which the reverse-splicing fitness amounted to 0.00415.

In the case of C82G A111G A120U A145C C150U C169A, the reverse-splicing fitness was found to be 0.00231.

Take C82G A111G A120U A145C C150U C169U: the reverse-splicing fitness is 0.00328.

Regarding C82G A111G A120U A145C C150U C169G, the reverse-splicing fitness turned out to be 0.00281.

Consider C82G A111G A120G A145G C150G C169G U176C, for which the reverse-splicing fitness stood at 0.0118.

As to C82G A111G A120G A145G C150G C169G U176A, the reverse-splicing fitness is 0.0111.

As to C82G A111G A120G A145G C150G C169G U176G, the reverse-splicing fitness came to 0.0063.

As for C82G A111G A120G A145G C150A C169A U176C, the reverse-splicing fitness stood at 0.0231.

Take C82G A111G A120G A145G C150A C169A U176G: the reverse-splicing fitness was 0.00774.

With C82G A111G A120G A145G C150A C169A U176A, the reverse-splicing fitness was found to be 0.0204.

With C82G A111G A120G C169A U176G, the reverse-splicing fitness was determined as 0.00429.

As for C82G A111G A120G C169A U176A, the reverse-splicing fitness is 0.022.

As for C82G A111G A120G C169A U176C, the reverse-splicing fitness is 0.0232.

On to C82G A111G A120G A145C C150U C169U, for which the reverse-splicing fitness is 0.0088.

Consider C82G A111G A120G A145C C150U C169A, for which the reverse-splicing fitness was determined as 0.00962.
